# Values quoted from earlier work as cited in paper PMC2910557.
# Like-named read-outs stand apart in the source and are kept apart here.
# Tests used:
# [1] = target: pHtrII (Natronomonas pharaonis) (UniProt P42259)
# [2] = target: pHtrII (Natronomonas pharaonis) (UniProt P42259); remark: listed apart in the source
# Sequence of UniProt P42259 (P42259 whole entry): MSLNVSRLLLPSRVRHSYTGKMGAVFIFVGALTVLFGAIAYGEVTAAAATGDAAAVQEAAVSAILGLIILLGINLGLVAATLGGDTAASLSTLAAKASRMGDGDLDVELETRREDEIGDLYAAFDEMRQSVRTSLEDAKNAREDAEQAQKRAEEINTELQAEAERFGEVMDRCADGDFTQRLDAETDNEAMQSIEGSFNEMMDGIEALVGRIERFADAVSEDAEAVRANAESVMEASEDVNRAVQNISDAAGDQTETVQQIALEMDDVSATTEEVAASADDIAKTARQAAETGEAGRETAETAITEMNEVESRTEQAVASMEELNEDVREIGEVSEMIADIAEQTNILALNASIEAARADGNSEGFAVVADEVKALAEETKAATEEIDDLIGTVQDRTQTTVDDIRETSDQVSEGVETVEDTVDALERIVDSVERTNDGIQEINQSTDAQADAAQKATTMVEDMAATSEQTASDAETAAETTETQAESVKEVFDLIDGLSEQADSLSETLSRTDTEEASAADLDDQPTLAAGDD
Kd [1] [nM],Kd [2] [nM],Substance
160,–,ppR (sensory rhodopsin II) (from UniProt P42196)
–,5000,ppR M intermediate (ppRM) (from UniProt P42196)
